Numbering of substitutions follows the chain as printed.
B1: toripalimab Fab, wild type (Fab, V domains shown)
VH: QGQLVQSGAEVKKPGASVKVSCKASGYTFTDYEMHWVRQAPIHGLEWIGVIESETGGTAYNQKFKGRVTITADKSTSTAYMELSSLRSEDTAVYYCAREGITTVATTYYWYFDVWGQGTTVTVSS
VL: DVVMTQSPLSLPVTLGQPASISCRSSQSIVHSNGNTYLEWYLQKPGQSPQLLIYKVSNRFSGVPDRFSGSGSGTDFTLKISRVEAEDVGVYYCFQGSHVPLTFGQGTKLEIK
notes: toripalimab Fab heavy chain; toripalimab stands in PDB 6JBT; toripalimab Fab light chain; also called WT; source: Brevibacillus, culture supernatant (ammonium sulfate precipitate); not shown: 6xHis, C-terminal, kept; 6xHN, C-terminal, kept
B2: toripalimab Fab H.T102A (Fab, V domains shown)
VH: B1 VH with T102A
VL: B1 VL
notes: heavy chain of Sm3 with this change; numbers count from the chain's first residue; as the light chain of Sm3; source: Brevibacillus, culture supernatant (ammonium sulfate precipitate); not shown: 6xHis, C-terminal, kept; 6xHN, C-terminal, kept
B3: toripalimab Fab H.D113A (Fab, V domains shown)
VH: B1 VH with D113A
VL: B1 VL
notes: as for B2
B4: toripalimab Fab H.I101A (Fab, V domains shown)
VH: B1 VH with I101A
VL: B1 VL
notes: as for B2
B5: toripalimab Fab H.W110A (Fab, V domains shown)
VH: B1 VH with W110A
VL: B1 VL
notes: as for B2
B6: toripalimab Fab H.F112A (Fab, V domains shown)
VH: B1 VH with F112A
VL: B1 VL
notes: as for B2
B7: toripalimab Fab H.G100Y (Fab, V domains shown)
VH: B1 VH with G100Y
VL: B1 VL
notes: as for B2
B8: toripalimab Fab H.E33Y (Fab, V domains shown)
VH: B1 VH with E33Y
VL: B1 VL
notes: as for B2
B9: toripalimab Fab H.T102Y (Fab, V domains shown)
VH: B1 VH with T102Y
VL: B1 VL
notes: as for B2
B10: toripalimab Fab H.T103A (Fab, V domains shown)
VH: B1 VH with T103A
VL: B1 VL
notes: as for B2
B11: toripalimab Fab H.Y111A (Fab, V domains shown)
VH: B1 VH with Y111A
VL: B1 VL
notes: as for B2
B12: toripalimab Fab H.D113Y (Fab, V domains shown)
VH: B1 VH with D113Y
VL: B1 VL
notes: as for B2
B13: toripalimab Fab H.Y108A (Fab, V domains shown)
VH: B1 VH with Y108A
VL: B1 VL
notes: as for B2
B14: toripalimab Fab H.T103Y (Fab, V domains shown)
VH: B1 VH with T103Y
VL: B1 VL
notes: as for B2
B15: toripalimab Fab H.I101Y (Fab, V domains shown)
VH: B1 VH with I101Y
VL: B1 VL
notes: as for B2

target: T1, human programmed cell death protein 1 (hPD-1) C93S (aa 24-167) (Homo sapiens, UniProt Q15116, C93S); experiment: SPR; Carterra LSA; Fab from the ammonium sulfate precipitate of the culture supernatant immobilised on a NiHC200M chip; hPD-1 (1-1024 nM) or mPD-1-Fc (4-1024 nM) as analyte, fourfold dilution series, no regeneration; HBS-EP pH 7.4, 25 °C; medians over the spots of a construct, KD = koff/kon; details: one partner purified
T1 construct: made as a fusion with a TEV site and human Fc; the Fc was cut off with TEV protease; source: Expi293F, purified (Protein A, TEV cleavage of Fc, SEC; monomer fractions); not shown: Fc (human), C-terminal, cleaved
Procedure, shortened: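 Fabs from Brevibacillus culture supernatants were ammonium sulfate-precipitated, redissolved in HBS-EP and captured in duplicate on a NiHC200M chip (Carterra LSA, 25 °C). Human PD-1 (1–1024 nM) or mouse PD-1-Fc (4–1024 nM) flowed as fourfold series without regeneration, with 10 min association and 5 min dissociation; unconfirmed binders were set to kon 10^3 […], koff 10^−2 s^−1. Rates came from kdka model fits (slow- or fast-dissociation settings, best fit); KD is koff/kon from per-construct medians.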

T1 sequence (Q15116 24-167 C93S): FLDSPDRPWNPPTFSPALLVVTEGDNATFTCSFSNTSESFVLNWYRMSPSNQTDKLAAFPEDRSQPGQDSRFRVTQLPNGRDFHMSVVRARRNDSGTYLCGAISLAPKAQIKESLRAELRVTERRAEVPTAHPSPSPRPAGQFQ

| Binder | Kd | koff | kon |
| --- | --- | --- | --- |
| B1 | < 0.841 nM | < 1e-05 s⁻¹ | 11900 M⁻¹ s⁻¹ |
| B2 | 65.9 nM | 0.000404 s⁻¹ | 6130 M⁻¹ s⁻¹ |
| B3 | < 1.79 nM | < 1e-05 s⁻¹ | 5600 M⁻¹ s⁻¹ |
| B4 | 107 nM | 0.000592 s⁻¹ | 5550 M⁻¹ s⁻¹ |
| B5 | < 2.43 nM | < 1e-05 s⁻¹ | 4120 M⁻¹ s⁻¹ |
| B6 | 6.2 nM | 2.72e-05 s⁻¹ | 4390 M⁻¹ s⁻¹ |
| B7 | 107 nM | 0.00166 s⁻¹ | 15500 M⁻¹ s⁻¹ |
| B8 | 430 nM | 0.00629 s⁻¹ | 14600 M⁻¹ s⁻¹ |
| B9 | 200 nM | 0.00148 s⁻¹ | 7420 M⁻¹ s⁻¹ |
| B10 | < 1.2 nM | < 1e-05 s⁻¹ | 8350 M⁻¹ s⁻¹ |
| B11 | 1610 nM | 0.0601 s⁻¹ | 37200 M⁻¹ s⁻¹ |
| B12 | < 1.6 nM | < 1e-05 s⁻¹ | 6230 M⁻¹ s⁻¹ |
| B13 | 48.6 nM | 0.000235 s⁻¹ | 4840 M⁻¹ s⁻¹ |
| B14 | < 2.91 nM | < 1e-05 s⁻¹ | 3430 M⁻¹ s⁻¹ |
| B15 | 54.5 nM | 0.000227 s⁻¹ | 4170 M⁻¹ s⁻¹ |
